{
  "source": "paper PMC6910828",
  "biological_target": "Cy3-labelled, prenylated Cdc42, wild type, GDP-bound",
  "assay": "membrane extraction (wash-off) assay on supported lipid bilayers, TIRF; as above, GDI titrated between 0 and 20 µM; Koff of the GTPase from the membrane plotted against GDI concentration and fitted with a hyperbolic function (Kd, Vmax); apparent affinities",
  "data": [
    {"substance": "Xenopus laevis RhoGDI E158/9Q (natural protein)", "values": [
      {"measurement": "fold reduction of the extraction of Cdc42:GDP against WT GDI", "value": "< 2", "unit": "fold"}
    ]}
  ]
}
